From PMC8299502 come the findings set out here.

The target in one data set is T1, RbFox(RRM) (UniProt Q9NWB1 109-208).
T1 sequence: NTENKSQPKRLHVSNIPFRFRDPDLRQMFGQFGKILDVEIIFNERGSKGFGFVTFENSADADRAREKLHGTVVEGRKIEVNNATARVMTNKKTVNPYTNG
As to the kind of experiment: fluorescence anisotropy. On the technique in general: Polarisation of emitted light reports the rotation of a fluorescent probe.

The target in the next data set is T2, Dazl(RRM) (Mus musculus, UniProt Q64368 32-117).
T2 sequence: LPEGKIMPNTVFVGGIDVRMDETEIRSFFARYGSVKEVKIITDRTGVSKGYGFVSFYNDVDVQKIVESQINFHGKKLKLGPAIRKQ
Description: fluorescence anisotropy.

As for UCCUGCAUGUUUA (ssRNA) [RbFox cognate RNA], the binding result with RbFox(RRM) is “binds”. For the molecule UUGUUCUUU (ssRNA) [Dazl cognate RNA], the binding result with Dazl(RRM) is given as “binds”.
